Ends that are not written are not given here. * marks the point of attachment. FITC = O=C1OC2(c3ccc(O)cc3Oc3cc(O)ccc32)c2ccc(NC(=S)*)cc21
T1: Pex5p wildtype, recombinant His6-tagged (HisPex5p) (S. cerevisiae, UniProt P35056 1-612)
T1 construct: Pex5p, PTS1 receptor of Saccharomyces cerevisiae, UniProtKB P35056, full length; No cleavage of the His tag is described; the native MS mass of the monomer is printed as 71.459 kDa; also called Pex5p^WT; source: E. coli BL21 RIL (DE3), purified (Ni-NTA, MonoQ anion exchange, SEC)
T1 sequence (looked up): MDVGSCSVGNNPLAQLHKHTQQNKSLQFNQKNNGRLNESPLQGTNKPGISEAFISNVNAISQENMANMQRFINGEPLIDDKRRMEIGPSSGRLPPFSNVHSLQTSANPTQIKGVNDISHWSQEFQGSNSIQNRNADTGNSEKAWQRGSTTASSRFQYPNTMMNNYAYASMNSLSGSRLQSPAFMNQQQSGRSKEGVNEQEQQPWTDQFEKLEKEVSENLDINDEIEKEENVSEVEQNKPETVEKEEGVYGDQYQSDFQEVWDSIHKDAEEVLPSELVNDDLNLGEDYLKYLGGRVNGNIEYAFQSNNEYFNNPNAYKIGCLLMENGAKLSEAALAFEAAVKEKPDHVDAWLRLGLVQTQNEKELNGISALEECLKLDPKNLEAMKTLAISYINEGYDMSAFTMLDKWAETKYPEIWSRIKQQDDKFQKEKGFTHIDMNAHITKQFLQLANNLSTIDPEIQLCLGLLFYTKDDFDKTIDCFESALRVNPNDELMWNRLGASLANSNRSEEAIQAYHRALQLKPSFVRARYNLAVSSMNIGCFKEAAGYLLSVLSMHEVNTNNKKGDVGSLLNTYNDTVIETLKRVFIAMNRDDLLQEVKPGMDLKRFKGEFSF

T2: Pex5p-S507/523D, recombinant His6-tagged phospho-mimicking mutant (S. cerevisiae, UniProt P35056 1-612, S507D | S523D)
T2 construct: Pex5p, PTS1 receptor of Saccharomyces cerevisiae, UniProtKB P35056, full length, with S507D and S523D; No cleavage of the His tag is described; the native MS mass of the monomer is printed as 71.515 kDa; also called Pex5p^2D; Pex5p-S507D/523D; source: E. coli BL21 RIL (DE3), purified (Ni-NTA, MonoQ anion exchange, SEC)
T2 sequence (looked up): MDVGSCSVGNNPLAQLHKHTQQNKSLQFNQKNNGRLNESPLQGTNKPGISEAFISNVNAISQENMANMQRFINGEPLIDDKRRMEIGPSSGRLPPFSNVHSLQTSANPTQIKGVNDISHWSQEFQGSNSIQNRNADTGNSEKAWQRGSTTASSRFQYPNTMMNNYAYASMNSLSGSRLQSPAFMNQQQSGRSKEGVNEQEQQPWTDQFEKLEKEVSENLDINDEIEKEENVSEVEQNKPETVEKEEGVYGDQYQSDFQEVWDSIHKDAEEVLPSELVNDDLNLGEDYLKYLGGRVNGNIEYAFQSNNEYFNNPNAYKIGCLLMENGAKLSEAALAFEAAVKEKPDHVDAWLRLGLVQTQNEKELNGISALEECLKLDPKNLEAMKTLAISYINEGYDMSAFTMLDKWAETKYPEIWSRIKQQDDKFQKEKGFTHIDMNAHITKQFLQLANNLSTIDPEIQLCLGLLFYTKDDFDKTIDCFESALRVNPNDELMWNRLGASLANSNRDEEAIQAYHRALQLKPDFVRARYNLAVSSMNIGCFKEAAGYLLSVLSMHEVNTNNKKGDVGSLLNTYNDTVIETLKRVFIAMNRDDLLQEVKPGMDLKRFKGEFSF


Key:
yeast peroxisomes = settings: under both glucose and oleate condition; ref Rosenthal et al. 2020; cited from earlier work
From the text: We classified PTS1-proteins into three different categories according to the observed import phenotypes. […] In contrast, peroxisomal NADP-dependent isocitrate dehydrogenase (Idp3p; Figure 4C) and malate synthase 1 (Mls1p; Figure 4D) belong to category 2 characterized by no peroxisomal import (Supplementary Fi ...

Pex5p^2D cells = test: Fluorescence microscopy, peroxisomal import of GFP-tagged proteins in Pex5p^2D-expressing cells; assay type: cell-based, S. cerevisiae; set-up: key to import phenotype category: showed a reduced peroxisomal import and constitute category 1; category 2 characterized by no peroxisomal import; without a noticeable effect on import in Pex5p^2D cells (category 3); settings: GFP-tagged protein, Pex5p^2D-expressing cells; Pex3p-mCherry marker; SD medium, 2% glucose; assessed manually
From the text: Query strains were constructed on the basis of an automated mating compatible strain. The query strains contained a peroxisomal marker (Pex3p-mCherry::HIS), a deletion of PEX5 (pex5Δ::NAT) and a plasmid expressing WT or mutant PEX5 (PEX5^WT, PEX5^2D or PEX5^2A). Using an automated mating method ([Cohen and Schuldiner 2011]; [Tong and Boone 2006]), the query strains were crossed with a NOP1pr-N′-GFP-peroxi library ([Dahan et al. 2017]). The NOP1pr-N′-GFP-peroxisomal library is a collection of ∼90 strains containing all the known peroxisomal proteins together with potential peroxisomal proteins and controls, genomically tagged with GFP at their N-terminus and expressed under the generic constitutive SpNOP1 promoter. To perform the manipulations in high-density format we used a RoToR bench top colony arrayer (Singer Instruments). In short: mating was performed on rich medium plates, and selection for diploid cells was performed on SD(MSG)-HIS-URA plates containing Geneticin (200 μg ml^−1) and Nourseothricin (200 μg ml^−1). Sporulation was induced by transferring cells to nitrogen starvation media plates for 7 days. Haploid cells containing the desired mutations were selected by transferring cells to SD-URA-HIS-LYS-ARG-LEU plates containing Geneticin and Nourseothricin (same concentrations as above), alongside the toxic amino acid derivatives Canavanine and Thialysine (Sigma-Aldrich) to select against remaining diploids and select for spores with an α mating type. A similar method was used to generate control, pex5Δ, and pex8Δ strains expressing GFP-Mdh3p (Supplementary Figure 4D), in which the query strain contained a peroxisomal marker (Pex3p-mCherry::NAT) and URA3::GFP-Mdh3p. This query strain was crossed with three strains from the mini peroxisomal deletion library ([Gabay-Maskit et al. 2020]): a control (no deletion), pex5Δ, and pex8Δ strain, all of which contain KAN (Geneticin) resistance.
The yeast collections were visualized using an automated microscopy setup as described previously ([Breker et al. 2013]). In short: cells were transferred from agar plates into 384-well polystyrene plates (Greiner) for growth in liquid media using the RoToR arrayer robot. Liquid cultures were grown in a LiCONiC incubator, overnight at 30 °C in SD-URA-HIS medium. A JANUS liquid handler (PerkinElmer) connected to the incubator was used to dilute the strains to an OD600 of ∼0.2 into plates containing SD medium (6.7 g l^−1 yeast nitrogen base and 2% glucose) supplemented with complete amino acids. Plates were incubated at 30 °C for 4 h. The cultures in the plates were then transferred by the liquid handler into glass-bottom 384-well microscope plates (Matrical Bioscience) coated with Concanavalin A (Sigma-Aldrich). After 20 min, cells were washed three times with SD-Riboflavin complete medium to remove non-adherent cells and to obtain a cell monolayer. The plates were then transferred to the ScanR automated inverted fluorescent microscope system (Olympus) using a robotic swap arm (Hamilton). Images of cells in the 384-well plates were recorded in the same liquid as the washing step at 24 °C using a 60× air lens (NA 0.9) and with an ORCA-ER charge-coupled device camera (Hamamatsu). Images were acquired in two channels: GFP (excitation filter 490/20 nm, emission filter 535/50 nm) and mCherry (excitation filter 572/35 nm, emission filter 632/60 nm). All images were taken at a single focal plane. The same protocol was used to visualize fluorescence signals in GFP-Mdh3p-expressing control, pex5Δ, and pex8Δ strains (Supplementary Figure 4D).

pex8Δ cells = settings: ref Rehling et al. 2000; cited from earlier work
From the text: Among the proteins with reduced peroxisomal import in Pex5p^2D cells (category 1) is Pex8p, an essential component of the import machinery for peroxisomal matrix proteins and required for the biogenesis of functional peroxisomes ([Agne et al. 2003]; [Rehling et al. 2000]), which may raise the question if the reduced import of most PTS1 proteins in Pex5p^2D cells is a consequence of decreased peroxisomal Pex8p levels.

[1] = target: T1, Pex5p wildtype, recombinant His6-tagged …; test: fluorescence polarisation; fluorescence anisotropy; 10 nM FITC-labelled peptide, serial dilutions of Pex5p variant 1.5 nM to 6.6 µM; 50 mM HEPES pH 7.5, 150 mM NaCl; one-site binding-saturation fit; settings: both partners purified
[2] = target: T2, Pex5p-S507/523D, recombinant …; test: as above; settings: both partners purified

Row | Molecule | targeting priority to peroxisomes (yeast peroxisomes) | import phenotype category (Pex5p^2D cells) | subcellular distribution (pex8Δ cells) | Kd [1] | Kd [2]
1 | Cat2p: carnitine acetyl-CoA transferase ({FITC}-YNENKRKAKL) | high targeting priority | category 3 | – | – | –
2 | Pcs60p: peroxisomal oxalyl-CoA synthetase, PTS1-protein | – | category 1 | mislocalization | – | –
3 | Lys1p: saccharopine dehydrogenase ({FITC}-YARVKRSSRL) | high targeting priority | category 3 | – | – | –
4 | Fox3p: 3-ketoacyl-CoA thiolase, PTS2 import pathway (protein, UniProt P27796 16-417, looked up) 3-ketoacyl-CoA thiolase, …: AMGKGESKRKNSLLEKRPEDVVIVAANRSAIGKGFKGAFKDVNTDYLLYNFLNEFIGRFPEPLRADLNLIEEVACGNVLNVGAGATEHRAACLASGIPYSTPFVALNRQCSSGLTAVNDIANKIKVGQIDIGLALGVESMTNNYKNVNPLGMISSEELQKNREAKKCLIPMGITNENVAANFKISRKDQDEFAANSYQKAYKAKNEGLFEDEILPIKLPDGSICQSDEGPRPNVTAESLSSIRPAFIKDRGTTTAGNASQVSDGVAGVLLARRSVANQLNLPVLGRYIDFQTVGVPPEIMGVGPAYAIPKVLEATGLQVQDIDIFEINEAFAAQALYCIHKLGIDLNKVNPRGGAIALGHPLGCTGARQVATILRELKKDQIGVVSMCIGTGMGAAAIFIKE | – | – | mislocalization | – | –
5 | Mdh3p: peroxisomal malate dehydrogenase (protein, UniProt P32419 2-343, looked up) Malate dehydrogenase, …: VKVAILGASGGVGQPLSLLLKLSPYVSELALYDIRAAEGIGKDLSHINTNSSCVGYDKDSIENTLSNAQVVLIPAGVPRKPGLTRDDLFKMNAGIVKSLVTAVGKFAPNARILVISNPVNSLVPIAVETLKKMGKFKPGNVMGVTNLDLVRAETFLVDYLMLKNPKIGQEQDKTTMHRKVTVIGGHSGETIIPIITDKSLVFQLDKQYEHFIHRVQFGGDEIVKAKQGAGSATLSMAFAGAKFAEEVLRSFHNEKPETESLSAFVYLPGLKNGKKAQQLVGDNSIEYFSLPIVLRNGSVVSIDTSVLEKLSPREEQLVNTAVKELRKNIEKGKSFILDSSKL | high targeting priority | category 3 | – | – | –
6 | Cta1p: protein mislocalized to the cytosol in pex8Δ cells in a previous study (protein, UniProt P15202 2-515, looked up) Peroxisomal catalase A: SKLGQEKNEVNYSDVREDRVVTNSTGNPINEPFVTQRIGEHGPLLLQDYNLIDSLAHFNRENIPQRNPHAHGSGAFGYFEVTDDITDICGSAMFSKIGKRTKCLTRFSTVGGDKGSADTVRDPRGFATKFYTEEGNLDWVYNNTPVFFIRDPSKFPHFIHTQKRNPQTNLRDADMFWDFLTTPENQVAIHQVMILFSDRGTPANYRSMHGYSGHTYKWSNKNGDWHYVQVHIKTDQGIKNLTIEEATKIAGSNPDYCQQDLFEAIQNGNYPSWTVYIQTMTERDAKKLPFSVFDLTKVWPQGQFPLRRVGKIVLNENPLNFFAQVEQAAFAPSTTVPYQEASADPVLQARLFSYADAHRYRLGPNFHQIPVNCPYASKFFNPAIRDGPMNVNGNFGSEPTYLANDKSYTYIQQDRPIQQHQEVWNGPAIPYHWATSPGDVDFVQARNLYRVLGKQPGQQKNLAYNIGIHVEGACPQIQQRVYDMFARVDKGLSEAIKKVAEAKHASELSSNSKF | – | – | mislocalization | – | –
7 | {FITC}-YNENKRKAKL (tyrosine added to the peptide amino-terminus for concentration measurements; the nine carboxy-terminal residues of Cat2p (carnitine acetyl-CoA transferase), S. cerevisiae; An extra N-terminal tyrosine stands before the natural stretch; also called Cat2p peptide; source: synthetic peptide (GenScript)) [Cat2p nonapeptide, FITC-YNENKRKAKL] | – | – | – | 116 nM | 896 nM
8 | {FITC}-YARVKRSSRL (tyrosine added to the peptide amino-terminus for concentration measurements; the nine carboxy-terminal residues of Lys1p (saccharopine dehydrogenase), S. cerevisiae; An extra N-terminal tyrosine stands before the natural stretch; also called Lys1p peptide; source: synthetic peptide (GenScript)) [Lys1p nonapeptide, FITC-YARVKRSSRL] | – | – | – | 88.8 nM | 3690 nM
